Assay results taken from US20060233785A1, “Immunointeractive molecules and uses thereof” (priority 2001, published 2006).
Changes are numbered by the printed parent chain.

B1: rHev b 6: recombinant Hev b 6 (prohevein) expressed in E. coli from pPROEX-HTa with 6-His tag (protein)
chain: EQCGRQAGGKLCPNNLCCSQWGWCGSTDEYCSPDHNCQSNCKDSGEGVGGGSASNVLATYHLYNSQDHGWDLNAASAYCSTWDANKPYSWRSKYGWTAFCGPVGAHGQSSCGKCLSVTNTGTGAKTTVRIVDQCSNGGLDLDVNVFRQLDTDGKGYERGHITVNYQFVDCGDSFNPLFSVMKSSVIN
modifications: left off: small tags and cut ends
notes: recombinant Hev b 6 (prohevein) expressed in E. coli from pPROEX-HTa with 6-His tag
B2: sulphonated rHev b 6: purified rHev b 6 sulphonated in sulphonation buffer to improve solubility (protein)
chain: B1 chain
modifications: left off: small tags and cut ends
B3: mutant rHev b 6: rHev b 6 with cysteine to alanine substitution at amino acid 3 of the mature protein (protein)
chain: B1 chain with C3A
modifications: left off: small tags and cut ends
notes: rHev b 6 with cysteine to alanine substitution at amino acid 3 of the mature protein

Assays:
latex-specific serum IgE = assay: ELISA detecting latex-specific serum IgE (Example 3); assay type: binding, human; settings: ten latex-allergic patients; serum 1:10
Protocol: FIG. 3 is a graphical representation of an ELISA detecting latex-specific serum IgE. ELISA plates were coated with 10 μg/ml rHev b 6 and glove extract, blocked with skim milk powder and incubated with patient (P1-10) and non-allergic control serum (NA1-6) diluted 1:10. Antibody binding was detected by incubation with rabbit anti-human IgE, swine anti-rabbit immunoglobulines-HRP and o-phenylenediamine as substrate. Mean values+SD for triplicate wells are shown. The cut-off for positive was 2 SD above the mean OD of non-allergic subjects for rHev b 6 (dotted line) and glove extract (black line).
Hybridoma supernatants were tested for reactivity to rHev b 6, glove extract and Hev b 6 peptides by ELISA using an established protocol (Sutherland et al., 2002, supra). Patient serum samples were tested for latex-specific IgE using a similar ELISA protocol with rabbit anti-human IgE (1/1000) and swine anti-rabbit immunoglobulins-horseradish peroxidase conjugate (1/1000). Monoclonal antibody isotypes were determined using a mouse immunoglobulin isotyping ELISA kit (BD Biosciences, San Diego, Calif., USA).

[1] = system: IgE from latex allergic subjects; assay: Western blotting of rHev b 6 forms with IgE of patient sera (Example 8); assay type: binding, human
Protocol: FIG. […] Gels were either stained with Coomassie Brilliant Blue (1) or transferred to nitrocellulose. Strips with transferred protein were incubated with the Hev b 6-specific mAb 1A5.4 and binding detected (2). Strips with transferred protein were also incubated with sera from two latex allergic, Hev b 6 sensitized subjects (3 and 4) and one non-latex-allergic, atopic subject (5). The presence or absence of IgE binding was then detected. […] Plates were coated with rHev b 6 and sulphonated rHev b 6 and the presence or absence of IgE-binding detected. As a positive control the Hev b 6-specific mAb 1A5 was used. NB indicates no binding of IgE was detected.
Four μg of rHev b 6 or sulphonated rHev b 6 were separated on 16% sodium dodecyl sulphate (SDS) polyacrylamide gels with 4% stacking gel. Electrophoresis was performed at 125V for 2 h on a Novex Xcell II Mini-Cell system (Novex, CA, USA). Proteins were visualized with Coomassie Brilliant Blue R-250 (Sigma). The separated proteins were electrophoretically transferred to nitro-cellulose membranes (BA 0.45μ, Schleicher and Schuell, Dassel, Germany) at 25V for 1 hr in transfer buffer. Membranes were blocked for 1 h at RT in 10% skim milk powder (SMP) in PBS, washed once in 0.05% Tween20/PBS and twice in PBS. Washed membranes were incubated for 1 hour at RT with either culture supernatant containing the Hev b 6-specific mAb 1A5.4, diluted 1 in 100 in 1% SMP/PBS or human serum, diluted 1 in 5 in 1% SMP/PBS. For mAb detection membranes were washed as above and incubated for 1 h at RT with goat HRP-conjugated anti-mouse Ig (Silenus), diluted 1 in 2000 in 1% SMP/PBS. For IgE detection, membranes were incubated for 1 h at RT with rabbit anti-human IgE (Dako, Denmark) at 1 in 1000 dilution, followed by swine anti-rabbit IgG-HRP conjugate (Promega) at 1 in 1000 dilution. After washing, the binding of 1A5.4 mAb and patient serum IgE to rHev b 6 was detected using hydrogen peroxide/diaminobenzidine solution.

IgE binding to rHev b 6 = assay: Inhibition ELISA: IgE binding to rHev b 6; design: species or system human; settings: for inhibitor concentration required to give 30% inhibition of IgE binding: estimated; for maximum inhibition of IgE binding to rHev b 6: third subject (FIG. 8D), 125 μg/ml inhibitor
Protocol: (§1) Inhibition ELISA were carried out to confirm the lack of IgE reactivity of mutant rHev b 6. Various concentrations of mutant rHev b 6 and rHev b 6, ranging from 0.0016 μg/ml to 125 μg/ml were preincubated with patient sera before the sera were used in ELISA to measure IgE binding to rHev b 6. Incubation of sera with KLH was used as a negative control. Values are presented as percent inhibition±standard deviation. (A) The Hev b 6-specific mAb 1A5.4 was incubated with KLH, mutant rHev b 6 and rHev b 6 and mAb binding to rHev b 6 detected. Sera from three latex-allergic, Hev b 6 sensitised subjects A7 (B), A6 (C) and A8 (D) were incubated with KLH, mutant rHev b 6 and rHev b 6 and IgE binding to rHev b 6 detected. The horizontal line indicates the level below which inhibition was considered to non-specific.
To confirm the lack of IgE reactivity of mutant rHev b 6, inhibition ELISA were performed. In these assays, IgE binding to rHev b 6 was inhibited by preincubation of sera from latex allergic, Hev b 6 reactive subjects with either rHev b 6 or mutant rHev b 6 over a range of concentrations. To determine the level of non-specific inhibition inherent in such an assay, an initial non-specific inhibition assay was performed. The serum of a latex-allergic, Hev b 5 positive subject was incubated with rHev b 6 and mutant rHev b 6 and then the ability of IgE from this serum to bind rHev b 5 in an ELISA was measured. When this assay was undertaken, binding of IgE to rHev b5 was inhibited at a maximum of 20% by rHev b 6 and mutant rHev b 6 (data not shown).

[2] = system: Hev b 6-specific mAb 1A5.4; assay: Inhibition ELISA: mAb 1A5.4 binding to rHev b 6; design: species or system mouse; settings: FIG. 8A
Protocol: as §1
In order to confirm the ability of the mutant rHev b 6 to inhibit Ab binding, rHev b 6 and mutant rHev b 6 were used to inhibit binding of the Hev b 6-specific mAb 1A5.4 to rHev b 6 (FIG. 8A).

[3] = Immunisation of mice with rHev b 6, serum ELISA; assay type: in vivo, BALB/c mice; settings: eight mice; 20 μg intraperitoneally
Protocol: Monoclonal antibody production followed established protocols (Sutherland et al, 2002, supr; Goding, J. Monoclonal Antibodies: principles and practice 3rd ed. London: Academic Press. 492, 1996). Approval was obtained from the Monash University Animal Ethics Committee. Eight BALB/c mice were immunised with 20 μg rHev b 6 in 100 ill of PBS, intraperitoneally, three times at three weekly intervals. The first injection was given with Complete Freund's Adjuvant (100 μl; Sigma) and the two subsequent injections with Incomplete Freund's Adjuvant (100 μl; Sigma). Mice were finally boosted with 20 μg rHev b 6 in 200 μl PBS intraperitoneally 3 days before being sacrificed. Hybridomas were generated by fusing immune mouse spleen cells with murine myeloma cells (line X-63.Ag8.653; 17) and supernatants were screened for antibody to rHev b 6 and glove extract by performing a duplicate ELISA as described below. Positive hybridomas were expanded and cloned by limiting dilution.

[4] = non-reducing SDS-PAGE, sera of latex allergic subjects
[5] = reducing SDS-PAGE (data not shown)

| Molecule | number of latex-allergic patients with serum IgE binding by ELISA (latex-specific serum IgE) | IgE reactivity in Western blotting [1, 4] | IgE reactivity in Western blotting [1, 5] | inhibitor concentration required to give 30% inhibition of IgE binding (IgE binding to rHev b 6) [µg/mL] | inhibition of IgE binding to rHev b 6 (IgE binding to rHev b 6; higher inhibitor concentrations, FIGS. 8B, C and D) [%] | maximum inhibition of IgE binding to rHev b 6 (IgE binding to rHev b 6) [%] | inhibition of mAb 1A5.4 binding to rHev b 6 [2] | number of immunised mice whose serum reacted with glove extract by ELISA [3] | number of immunised mice with strong polyclonal immune response to rHev b 6 [3] | fold more inhibitor required to inhibit IgE binding as effectively as rHev b 6 (IgE binding to rHev b 6; at 30% inhibition) | inhibition of IgE binding to rHev b 6 (IgE binding to rHev b 6; two subjects (FIGS. 8B and C), 0.0016 to 125 μg/ml) |
| --- | --- | --- | --- | --- | --- | --- | --- | --- | --- | --- | --- |
| B1 | eight | reactive | reactive | 0.01 | 100 | 100 | comparable inhibition | seven | eight | – | – |
| B2 | – | failed to react | reactive | – | – | – | – | – | – | – | – |
| B3 | – | – | – | 125 | – | 32 | comparable inhibition | – | – | 12,500 fold | failed to inhibit above the level determined for non-specific inhibition |
